In patent US20240261333A1 (published 2024):

Key:
SAMM50 = biological target: T1, SAMM50 (human, UniProt Q9Y512 1-469); test: co-IP, anti-FLAG, lysate of cells with C-FLAG B3GNT2; mass spectrometry
T1 construct: also called NP_056195.3
T1 sequence (looked up): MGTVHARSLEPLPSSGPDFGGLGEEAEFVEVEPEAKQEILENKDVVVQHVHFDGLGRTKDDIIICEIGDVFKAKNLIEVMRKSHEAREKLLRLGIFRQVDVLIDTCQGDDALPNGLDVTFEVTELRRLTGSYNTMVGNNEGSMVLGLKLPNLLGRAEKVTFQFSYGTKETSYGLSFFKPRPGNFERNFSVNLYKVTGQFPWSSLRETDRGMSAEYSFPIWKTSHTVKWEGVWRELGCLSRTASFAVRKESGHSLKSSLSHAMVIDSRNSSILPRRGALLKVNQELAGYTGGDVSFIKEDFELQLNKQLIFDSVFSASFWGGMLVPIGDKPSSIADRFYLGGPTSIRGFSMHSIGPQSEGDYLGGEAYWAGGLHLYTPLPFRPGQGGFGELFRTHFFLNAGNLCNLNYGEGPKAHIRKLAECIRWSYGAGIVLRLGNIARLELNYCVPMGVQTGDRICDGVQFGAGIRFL
Method: (§1) Cells were plated in 10-cm cell culture dishes and grown to 60-80% confluency. For each condition, two biological replicates were harvested for co-IP. Cells were washed with PBS and 4 mL of lysis buffer (20 mM HEPES, 1% Triton X-100, 150 mM NaCl, 1 mM EDTA, and 10% glycerol) containing protease inhibitor cocktail was added. Cells were scraped and lysate was incubated at 4° C. under rotary agitation for 1 h. Lysate was centrifuged at 14,000×g for 10 min at 4° C. Supernatant was transferred to a new tube and an aliquot was taken as the input. […] For Western blots, 10 μg/mL Chicken Anti-FLAG (Aves labs ET-DY100) and IgY control (R&D Systems AB-101-C) antibodies were biotinylated (Thermo Fisher Scientific 90407) and added to the respective conditions. Lysates with antibodies were incubated at 4° C. under rotary agitation overnight. For each mL of lysate, 50 μL of Pierce Protein A/G Magnetic Beads (Mass spectrometry; Thermo Fisher Scientific 88803) or Pierce Streptavidin Magnetic Beads (Western blot; Thermo Fisher Scientific 88817) was washed twice with lysis buffer. Lysates with antibodies were added to the beads and incubated at 4° C. under rotary agitation for 4 h. Beads were washed with lysis buffer 3 times and resuspended in lysis buffer for storage.
(§2) Magnetic beads were resuspended in 100 mM Tris pH 7.8, reduced, alkylated and digested with trypsin at 37° ° C. overnight. This solution was subjected to solid phase extraction to concentrate the peptides and remove unwanted reagents followed by injection onto a Shimadzu HPLC with fraction collector. Eight fractions were collected and after concentration were injected on a Waters NanoAcquity HPLC equipped with a self-packed Aeris 3 μm C18 analytical column 0.075 mm by 20 cm, (Phenomenex). Peptides were eluted using standard reverse-phase gradients. The effluent from the column was analyzed using a Thermo Orbitrap Elite mass spectrometer (nanospray configuration) operated in a data dependent manner for 54 minutes. The resulting fragmentation spectra were correlated against the known database using Proteome Discover 1.4 (Thermo Fisher Scientific).

NUFIP2 = biological target: T2, NUFIP2 (human, UniProt Q7Z417 1-695); test: as above
T2 construct: also called NP_065823.1
T2 sequence (looked up): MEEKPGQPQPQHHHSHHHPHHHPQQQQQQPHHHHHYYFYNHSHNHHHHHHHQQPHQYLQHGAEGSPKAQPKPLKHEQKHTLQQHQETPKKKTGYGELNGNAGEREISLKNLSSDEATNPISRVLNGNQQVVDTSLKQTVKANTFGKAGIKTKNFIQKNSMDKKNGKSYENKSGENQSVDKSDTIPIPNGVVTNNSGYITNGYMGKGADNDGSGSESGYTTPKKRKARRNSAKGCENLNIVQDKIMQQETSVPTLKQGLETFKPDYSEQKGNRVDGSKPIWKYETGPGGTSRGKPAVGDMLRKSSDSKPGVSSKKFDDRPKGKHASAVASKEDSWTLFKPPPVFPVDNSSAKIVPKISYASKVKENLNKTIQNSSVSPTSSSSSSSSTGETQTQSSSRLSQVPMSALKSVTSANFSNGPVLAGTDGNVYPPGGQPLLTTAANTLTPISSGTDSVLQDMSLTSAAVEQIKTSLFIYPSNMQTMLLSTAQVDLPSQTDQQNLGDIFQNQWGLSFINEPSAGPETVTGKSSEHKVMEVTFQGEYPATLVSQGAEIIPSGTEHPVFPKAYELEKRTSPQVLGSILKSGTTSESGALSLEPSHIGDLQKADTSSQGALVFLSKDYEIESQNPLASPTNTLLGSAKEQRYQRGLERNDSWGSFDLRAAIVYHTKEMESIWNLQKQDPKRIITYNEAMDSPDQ
Method: as §1, §2

B1: C-terminal FLAG tagged B3GNT2 (enzyme, human, UniProt Q9NY97 1-397, looked up)
chain: MSVGRRRIKLLGILMMANVFIYFIMEVSKSSSQEKNGKGEVIIPKEKFWKISTPPEAYWNREQEKLNRQYNPILSMLTNQTGEAGRLSNISHLNYCEPDLRVTSVVTGFNNLPDRFKDFLLYLRCRNYSLLIDQPDKCAKKPFLLLAIKSLTPHFARRQAIRESWGQESNAGNQTVVRVFLLGQTPPEDNHPDLSDMLKFESEKHQDILMWNYRDTFFNLSLKEVLFLRWVSTSCPDTEFVFKGDDDVFVNTHHILNYLNSLSKTKAKDLFIGDVIHNAGPHRDKKLKYYIPEVVYSGLYPPYAGGGGFLYSGHLALRLYHITDQVHLYPIDDVYTGMCLQKLGLVPEKHKGFRTFDIEEKNKNNICSYVDLMLVHSRKPQEMIDIWSQLQSAHLKC
notes: Overexpressed in cells and pulled down from the lysate with mouse anti-FLAG antibody; also called C-FLAG B3GNT2; C-term flag; not shown: C-terminal FLAG tag
co-IP mass spectrometry count (SAMM50): 0
co-IP mass spectrometry count (NUFIP2): 5
